Assay [1] concerns the target endogenous ASC of THP-1 cells (human (endogenous in THP-1), UniProt Q9ULZ3 1-195). In words: co-IP.
Assay [2] deals with ASC^FL (from His-MBP-ASC^FL after removal of His-MBP by TEV) (UniProt Q9ULZ3 1-195). The assay can be described thus: pull-down.
Sequence of ASC^FL (from His-MBP-ASC^FL after removal of His-MBP by TEV) (Q9ULZ3 whole entry): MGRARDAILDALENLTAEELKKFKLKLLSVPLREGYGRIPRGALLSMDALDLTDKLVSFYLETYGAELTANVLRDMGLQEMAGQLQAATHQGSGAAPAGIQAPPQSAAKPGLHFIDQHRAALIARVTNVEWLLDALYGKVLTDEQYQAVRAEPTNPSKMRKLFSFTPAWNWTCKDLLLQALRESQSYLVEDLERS

Sequence of endogenous ASC of THP-1 cells (Q9ULZ3 whole entry): as above

B1: endogenous caspase-1 of THP-1 cells (enzyme, human (endogenous in THP-1), UniProt P29466 1-404, looked up)
chain: MADKVLKEKRKLFIRSMGEGTINGLLDELLQTRVLNKEEMEKVKRENATVMDKTRALIDSVIPKGAQACQICITYICEEDSYLAGTLGLSADQTSGNYLNMQDSQGVLSSFPAPQAVQDNPAMPTSSGSEGNVKLCSLEEAQRIWKQKSAEIYPIMDKSSRTRLALIICNEEFDSIPRRTGAEVDITGMTMLLQNLGYSVDVKKNLTASDMTTELEAFAHRPEHKTSDSTFLVFMSHGIREGICGKKHSEQVPDILQLNAIFNMLNTKNCPSLKDKPKVIIIQACRGDSPGVVWFKDSVGVSGNLSLPTTEEFEDDAIKKAHIEKDFIAFCSSTPDNVSWRHPTMGSVFIGRLIEHMQEYACSCDVEEIFRKVRFSFEQPDGRAQMPTTERVTLTRCFYLFPGH
What is called stoichiometry N is the number of molecules, sites or subunits per partner or assembly. As to B1, the “stoichiometry N” value in assay [1] is ~3.5 fold (caspase-1 to ASC).

B2: His-GFP-caspase-1^CARD (domain or fragment, UniProt P29466 1-91, looked up)
chain: MADKVLKEKRKLFIRSMGEGTINGLLDELLQTRVLNKEEMEKVKRENATVMDKTRALIDSVIPKGAQACQICITYICEEDSYLAGTLGLSA
Consider B2, for which the binding result in assay [2] was “binds”.
